Reference: paper PMC9430884

Columns and labels:
[1] = target: Gal4BD-CckAΔTM (Rhodobacter sphaeroides)
[2] = target: CckA_(L391F) (two-hybrid fusion) (Rhodobacter sphaeroides); details: scale: times higher concentration of Osp than for wild-type CckA

## Gal4AD-Osp (natural protein)
[1]
  inhibition of CckA autophosphorylation with [γ-32P]ATP, purified proteins (2.5 μM His6-CckA cytoplasmic domain, Osp-His6 0 to 10 μM, 30 min): 50%
[2]
  inhibition of CckA L391F autophosphorylation with [γ-32P]ATP, purified proteins (2.5 μM His6-CckA L391F cytoplasmic domain, Osp-His6 0 to 10 μM, 30 min), against wild-type CckA: 4
